Source: US8501426B2, “Method for identifying protease inhibitors” (priority 2006, dated 2013)
[ ]: non-standard residue; d: D form. The star is where a group is joined. FITC = O=C1OC2(c3ccc(O)cc3Oc3cc(O)ccc32)c2ccc(NC(=S)*)cc21; Abu = CC[C@H](N)C(=O)O; Ahx = NCCCCCC(=O)O

Legend:
[1] = tested on: CC[C@H](NC(=O)[C@@H](NC(=O)[C@@H](NC(=O)[C@H](CC(=O)O)NC(=O)[C@@H](N)CCC(=O)O)C(C)C)C(C)C)C(=O)N[C@@H](CS)C(=O)N[C@@H](CO)C(=O)N[C@@H](CCSC)C(=O)N[C@@H](CO)C(=O)N[C@@H](Cc1ccc(O)cc1)C(=O)O; test: HCV NS3 protease domain peptide cleavage assay (determination of Km and Vmax); type: biochemical; details: other: enzyme NS3 Protease Domain; peptide substrate varied 3 μM to 200 μM; 25 μM KK4A cofactor; reverse phase HPLC; pH 7.8; 40.0 °C
Protocol: This assay is a modification of that described by Landro, et al. (Landro J A, Raybuck S A, Luong Y C, O'Malley E T, Harbeson S L, Morgenstern K A, Rao G and Livingston D L. Biochemistry 1997, 36, 9340-9348), and uses a peptide substrate (NS5AB), based on the NS5A/NS5B cleavage site for genotype 1a HCV. The substrate stock solution (25 mM) was prepared in DMSO containing 0.2 M DTT and stored at −20° C. A synthetic peptide cofactor (KK4A) was used as a substitute for the central core region of NS4A. The reaction was performed in a 96-well microtiter plate format using 25 ηM to 50 ηM HCV NS3 protease domain in buffer containing 50 mM HEPES pH 7.8, 100 mM NaCl, 20% glycerol, 5 mM DTT and 25 μM KK4A. The final DMSO concentration was no greater than 2% v/v. […]
The SMSY product was separated from substrate and KK4A using a microbore separation method. […] The SMSY product peak was quantified using the data collected at […].
To determine the kinetic parameters Km and Vmax, the HCV NS3 protease domain or HCV NS3•4A was reacted with peptide substrate under the assay conditions described above. […] The ratio of the product peak area (as determined by reverse phase HPLC) to the reaction time yielded a rate of enzyme catalyzed hydrolysis. […] The value of kcat was determined from Vmax using the nominal protease concentration and a fully cleaved substrate peptide as an instrument calibration standard.

[2] = tested on: CC[C@H](NC(=O)[C@@H](NC(=O)[C@@H](NC(=O)[C@H](CC(=O)O)NC(=O)[C@@H](N)CCC(=O)O)C(C)C)C(C)C)C(=O)N[C@@H](CS)C(=O)N[C@@H](CO)C(=O)N[C@@H](CCSC)C(=O)N[C@@H](CO)C(=O)N[C@@H](Cc1ccc(O)cc1)C(=O)O; test: HCV NS3 peptide cleavage assay with full-length NS3•4A (determination of Km and Vmax); type: biochemical, HCV sub-type strain 1a; details: other: enzyme NS3•4A; peptide substrate varied 3 μM to 200 μM; 25 μM NS4A peptide; reverse phase HPLC; 40.0 °C
Protocol: (§1) This assay follows the cleavage of a peptide substrate by full-length hepatitis C viral protein NS3•4A. One of three peptide substrates based on the NS5A/NS5B cleavage site for genotype 1a HCV, shown in table 3 below, is used to measure enzyme activity. All substrate stock solutions (25 mM) were prepared in DMSO containing 0.2 M DTT and stored at −20° C. A synthetic peptide cofactor (NS4A Peptide) was used to supplement NS4A. The hydrolysis reaction was performed in a 96-well microtiter plate format using 100 ηM to 125 ηM HCV NS3•4A in buffer containing 50 mM HEPES pH 7.8, 100 mM NaCl, 20% glycerol, 5 mM DTT and 25 μM NS4A peptide. The final DMSO concentration was no greater than 2% v/v. Reactions using NS5AB or NS5AB-EDANS as substrate were quenched by the addition of 10% trifluoroacetic acid (TFA) to yield a final TFA concentration of 2.5%. Reactions using FITC-NS5AB-1 as substrate were quenched by the addition of 0.4 M formic acid to yield a final concentration of 0.08 M acid.
(§2) Enzymatic activity was assessed by separation of substrate and products using reverse phase HPLC. The instrument used was an Agilent 1100 with a G1322A degasser, either a G1312A binary pump or a G1311A quaternary pump, a G1313A autosampler, a G1316A column thermostated chamber, a G1321A fluorescence detector and a G1315A diode array detector. The column thermostat was at 40° C. […] The C-terminal product peak (NH2-SMSY-COOH) was quantified using the absorbance data collected at 210 ηm. […] The C-terminal product peak (NH2-SMSYT-Asp(EDANS)-KKK-COOH) was quantified using the fluorescence data collected at 350 ηm excitation/490 ηm emission. […] The N-terminal product peak (FITC-Ahx-EDVV-(alpha)Abu-C-COOH) was quantified using the fluorescence data collected at 440 ηm excitation/520 ηm emission. Alternatively, the ratio of N-terminal product to unreacted FITC-NS5AB-1 substrate was determined using a Caliper LabChip 3000 with detection at 488 ηm excitation/530 ηm emission, using a chip buffer of 100 mM Tris pH 7.0, 10 mM EDTA, 0.01% (v/v) Brij-35, and 0.1% (v/v) CR-3. […]

HCV NS3•4A = molecular target: T1, HCV NS3•4A (Hepatitis C virus genotype 1a, UniProt P27958); test: as above; type: biochemical, HCV sub-type strain 1a; details: enzyme NS3•4A; peptide substrate varied 3 μM to 200 μM; 25 μM NS4A peptide; reverse phase HPLC
T1 construct: hexa-histidine (N); made in house; host or cells: Sf9 insect cells (recombinant baculovirus, pVL1392-His-NS3•4A)
Protocol: as §1, §2

HCV NS3 protease domain (Hepatitis C virus (isolate Con1))
Km [1]: 25 µM | kcat/Km [1]: 30000 M⁻¹ s⁻¹

HCV NS3•4A (Hepatitis C virus (isolate H77))
Km [2]: 30 µM | kcat/Km [2]: 7900 M⁻¹ s⁻¹

FITC-Ahx-EDVV-(alpha)Abu-CSMSYTKK-NH2 ({FITC}-[Ahx]EDVV[Abu]CSMSYTKK-NH2) [FITC-NS5AB-1, FITC-labelled peptide substrate based on the NS5A/NS5B cleavage site for genotype 1a HCV]
Km (HCV NS3•4A): 15 µM
